This is an account of results in PMC6987454.

The target of assay [1] is AtCGE1 (Arabidopsis chloroplast GrpE homologue 1), mature region, 6xHis-tagged (Arabidopsis). Nature of the assay: cross-linking; 5 uM purified protein in common buffer [25 mM Hepes-KOH (pH 7.8), 5 mM MgCl2, 5 mM DTT] crosslinked with glutaraldehyde at 0.05, 0.1 and 0.2% for 10 min; 4-12% SDS-PAGE and CBR staining.
Assay [2] addresses AtCGE2 (Arabidopsis chloroplast GrpE homologue 2), mature region, 6xHis-tagged (Arabidopsis). Described as above.
The target in assay [3] is AtCGE1 (Arabidopsis chloroplast GrpE homologue 1), mature region, 6xHis-tagged (Arabidopsis). Nature of the assay: pull-down; AtCGE1-6xHis and tag-free AtCGE2 co-expressed in E. coli BL21(DE3); crude protein extract bound to Talon beads, stringent wash, elution; bands seen on PAGE.

“And” between values parts separate entries of the source, which are not always exact repeats. Equal values may be shown once.

AtCGE1 (Arabidopsis chloroplast GrpE homologue 1), mature region, 6xHis-tagged (Arabidopsis), sequence (main, as listed by the source): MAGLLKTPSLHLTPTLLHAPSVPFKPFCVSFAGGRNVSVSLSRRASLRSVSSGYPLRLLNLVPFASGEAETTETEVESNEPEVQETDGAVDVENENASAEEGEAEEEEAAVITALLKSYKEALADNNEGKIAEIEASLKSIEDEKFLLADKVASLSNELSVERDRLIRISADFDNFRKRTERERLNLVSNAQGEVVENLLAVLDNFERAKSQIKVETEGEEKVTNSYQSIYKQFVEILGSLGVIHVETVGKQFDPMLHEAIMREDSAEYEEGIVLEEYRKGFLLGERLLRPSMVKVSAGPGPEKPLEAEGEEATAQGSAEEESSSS

Consider “AtCGE1 (Arabidopsis chloroplast GrpE homologue 1), mature region, 6xHis-tagged (natural protein)”, for which, in assay [1], the stoichiometry N is 2 and 4. Regarding “AtCGE2 (Arabidopsis chloroplast GrpE homologue 2), mature region, 6xHis-tagged (natural protein)”, the stoichiometry N in assay [2] was 2 and 4.

In turn, “AtCGE2 (Arabidopsis chloroplast GrpE homologue 2), mature region, tag-free, co-expressed with AtCGE1-6xHis (natural protein)” came in with a stoichiometry N in assay [3] of 1 molar ratio.

By stoichiometry N is commonly meant a count of units in the complex or per binding partner.
